Reference: paper PMC3894748 (2013)

Target: actin (Homo sapiens, UniProt P60709)
Assay: Ca2+-ATPase activity inhibition

- Kd: 680 nM
B1: plasma membrane calcium pump (PMCA) (protein)
chain: MTNPSDRVLPANSMAESREGDFGCTVMELRKLMELRSRDALTQINVHYGGVQNLCSRLKTSPVEGLSGNPADLEKRRQVFGHNVIPPKKPKTFLELVWEALQDVTLIILEIAAIISLVLSFYRPAGEENELCGQVATTPEDENEAQAGWIEGAAILFSVIIVVLVTAFNDWSKEKQFRGLQCRIEQEQKFSIIRNGQLIQLPVAEIVVGDIAQVKYGDLLPADGILIQGNDLKIDESSLTGESDHVKKSLDKDPMLLSGTHVMEGSGRMVVTAVGVNSQTGIILTLLGVNEDDEGEKKKKGKKQGVPENRNKAKTQDGVALEIQPLNSQEGIDNEEKDKKAVKVPKKEKSVLQGKLTRLAVQIGKAGLLMSALTVFILILYFVIDNFVINRRPWLPECTPIYIQYFVKFFIIGITVLVVAVPEGLPLAVTISLAYSVKKMMKDNNLVRHLDACETMGNATAICSDKTGTLTMNRMTVVQAYIGGIHYRQIPSPDVFLPKVLDLIVNGISINSAYTSKILPPEKEGGLPRQVGNKTECALLGFVTDLKQDYQAVRNEVPEEKLYKVYTFNSVRKSMSTVIRNPNGGFRMYSKGASEIILRKCNRILDRKGEAVPFKNKDRDDMVRTVIEPMACDGLRTICIAYRDFDDTEPSWDNENEILTELTCIAVVGIEDPVRPEVPDAIAKCKQAGITVRMVTGDNINTARAIATKCGILTPGDDFLCLEGKEFNRLIRNEKGEVEQEKLDKIWPKLRVLARSSPTDKHTLVKGIIDSTVGEHRQVVAVTGDGTNDGPALKKADVGFAMGIAGTDVAKEASDIILTDDNFTSIVKAVMWGRNVYDSISKFLQFQLTVNVVAVIVAFTGACITQDSPLKAVQMLWVNLIMDTFASLALATEPPTESLLKRRPYGRNKPLISRTMMKNILGHAFYQLIVIFILVFAGEKFFDIDSGRKAPLHSPPSQHYTIVFNTFVLMQLFNEINSRKIHGEKNVFSGIYRNIIFCSVVLGTFICQIFIVEFGGKPFSCTSLSLSQWLWCLFIGIGELLWGQFISAIPTRSLKFLKEAGHGTTKEEITKDAEGLDEIDHAEMELRRGQILWFRGLNRIQTQIDVINTFQTGASFKGVLRRQNMGQHLDVKLVPSSSYIKVVKAFHSSLHESIQKPYNQKSIHSFMTHPEFAIEEELPRTPLLDEEEEENPDKASKFGTRVLLLDGEVTPYANTNNNAVDCNQVQLPQSDSSLQSLETSV
